This series deals with the molecule itself. The series can be described thus: SEC-SAXS; purified complexes loaded at 2.55 (CBKP1P2), 0.72 (CBKP1) and 3 mg/ml (CBKP2) on a Bio-SEC3 column; 20 mM Tris pH 8.5, 300 mM NaCl, 5 mM 2-mercaptoethanol, 5% glycerol. (SEC sorts molecules by how far they enter the pores of the column.)

B1: CBKP1, four-subunit PaKEOPS complex (PaCgi121/PaBud32/PaKae1/PaPcc1) (complex)
chain 1: MTPKFKNFKHDNSGQVETYLFEVISKYTMLEIKTKFGKLCIAKVKLASESIERALNLCNDNCQIVSAKCHEEVIFATILAIKAFSSGRNTAKTIKGEILLRLAGVKQIKDAIKIIGARKGENLIIYFGVSDPCSSLKDFISSLGLREEPLKPCDEDEVKRGFERAAIIEAL
chain 2: MKLIKQGAEAKIYLAEFSELYFDYPIKVIVKERIKKRYRIPEIDLKLRKERTIREARILRRAKEFGVNVPYVFEVDTKNMIIVMEYIEGERLKELLEKLPMEERLKVCREVGRQIGKLHEAGIVHGDLTTSNMILREGKVYFIDFGLAEFDDTIEAQGVDLHLLKRAMESTHYKWFERGFEEVLKGYIEIRGEDKGREIREKIREIELRGRYRERSWITQ
chain 3: MLALGIEGTAHTLGIGIVSEDKVLANVFDTLTTEKGGIHPKEAAEHHARLMKPLLRKALSEAGVSLDDIDVIAFSQGPGLGPALRVVATAARALAVKYRKPIVGVNHCIAHVEITKMFGVKDPVGLYVSGGNTQVLALEGGRYRVFGETLDIGIGNAIDVFARELGLGFPGGPKVEKLAEKGEKYIELPYAVKGMDLSFSGLLTEAIRKYRSGKYRVEDLAYSFQETAFAALVEVTERAVAHTEKDEVVLVGGVAANNRLREMLRIMTEDRGIKFFVPPYDLCRDNGAMIAYTGLRMYKAGISFRLEETIVKQKFRTDEVEIVW
chain 4: MKPKRVQGKIVIEFPSEDIAEVVYTSVLYEHVSVPYRRSRVNFRREGRRIVLEIEANDSSAMRGTVNSYLRWIKVALDVLNI
The term stoichiometry N denotes a count of units in the complex or per binding partner. Take B1: the “stoichiometry N” value came out at 2.
